According to patent JP2018153172A (dated 2018):

B1: ヒト化抗体A AH4−AL7 (antibody, V domains shown)
VH: QVQLVQSGAEVKKPGSSVKVSCKASGYTFTDYNMDWVRQAPGQGLEWMGDINSHSGGIIYNQKFKDRVTITADESTSTAYMELSSLRSEDTAVYYCARTYYVYGHFFDYWGQGTLVTVSS
VL: DIQMTQSPSTLSASIGDRVTITCNVSSSVTSMYWFQQRPGQAPKVLIYLTSNLASGVPSRFSGSGSGTDFTFTISSLQPEDIATYYCQQWSTNPLTFGGGTKVDIK
notes: VH on human IgG1 constant region (pFUSEss-CHIg-hG1), VL on human kappa constant region (pFUSE2ss-CLIg-hk); also called AH4-AL7
B2: ヒト化抗体A AH2−AL7 (antibody, V domains shown)
VH: QVQLQQPGAELVQPGTSVRLSCKASGYTFTDYNMDWVKQRPGQGLEWIGDINSHSGGIIYNQKFKDKATLTVDKSSSTAYMQLSSLTSEDSAVYYCTRTYYVYGHFFDYWGQGTLVTVSA
VL: DIQMTQSPSTLSASIGDRVTITCNVSSSVTSMYWFQQRPGQAPKVLIYLTSNLASGVPSRFSGSGSGTDFTFTISSLQPEDIATYYCQQWSTNPLTFGGGTKVDIK
notes: VH on human IgG1 constant region (pFUSEss-CHIg-hG1), VL on human kappa constant region (pFUSE2ss-CLIg-hk); also called AH2-AL7
B3: ヒト化抗体A AH3−AL2 (antibody, V domains shown)
VH: QVQLVQSGAEVKKPGASVKVSCKASGYTFTDYNMDWVRQAPGQGLEWIGDINSHSGGIIYNQKFKDKATMTVDTSTNTAYMELSSLRSEDTAVYYCARTYYVYGHFFDYWGQGTLVTVSS
VL: DIQMTQSPSSLSASVGDRVTITCNVSSSVTSMYWYQQKQGKSPQLLVYLTSNLASGVPSRFSGSGSGTQFSLKINNLQPEDFGSYYCQQWSTNPLTFGAGTKLDLK
notes: VH on human IgG1 constant region (pFUSEss-CHIg-hG1), VL on human kappa constant region (pFUSE2ss-CLIg-hk); also called AH3-AL2
B4: ヒト化抗体A AH3−AL1 (antibody, V domains shown)
VH: QVQLVQSGAEVKKPGASVKVSCKASGYTFTDYNMDWVRQAPGQGLEWIGDINSHSGGIIYNQKFKDKATMTVDTSTNTAYMELSSLRSEDTAVYYCARTYYVYGHFFDYWGQGTLVTVSS
VL: DIQMTQSPSSLSASVGDRVTITCNVSSSVTSMYWYQQKPGKAPKLLIYLTSNLASGVPARFSGSGSGTEFTLTISSLQPDDFATYYCQQWSTNPLTFGAGTKLDLK
notes: VH on human IgG1 constant region (pFUSEss-CHIg-hG1), VL on human kappa constant region (pFUSE2ss-CLIg-hk); also called AH3-AL1
B5: ヒト化抗体A AH3−AL6 (antibody, V domains shown)
VH: QVQLVQSGAEVKKPGASVKVSCKASGYTFTDYNMDWVRQAPGQGLEWIGDINSHSGGIIYNQKFKDKATMTVDTSTNTAYMELSSLRSEDTAVYYCARTYYVYGHFFDYWGQGTLVTVSS
VL: EIVLTQSPATLSLSPGERATLSCNVSSSVTSMYWYQQKPGQAPRLLIYLTSNLASGIPDRFSGSGSGTDFTLTISRLEPEDFAVYYCQQWSTNPLTFGQGTKVEIK
notes: VH on human IgG1 constant region (pFUSEss-CHIg-hG1), VL on human kappa constant region (pFUSE2ss-CLIg-hk); also called AH3-AL6
B6: ヒト化抗体A AH5−AL1 (antibody, V domains shown)
VH: EVQLVQSGPELKKPGASVKVSCKASGYTFTDYNMDWVKQRPGQGLEWIGDINSHSGGIIYNQKFKDRVTITADESTSTAYMELTSLTSEDTAVYYCARTYYVYGHFFDYWGQGTLVSVSS
VL: DIQMTQSPSSLSASVGDRVTITCNVSSSVTSMYWYQQKPGKAPKLLIYLTSNLASGVPARFSGSGSGTEFTLTISSLQPDDFATYYCQQWSTNPLTFGAGTKLDLK
notes: VH on human IgG1 constant region (pFUSEss-CHIg-hG1), VL on human kappa constant region (pFUSE2ss-CLIg-hk); also called AH5-AL1
B7: ヒト化抗体A AH6−AL7 (antibody, V domains shown)
VH: QVQLVQSGAEVKKPGASVKVSCKASGYTFTDYNMDWVRQAPGQGLEWIGDINSHSGGIIYNQKFKDRVTITADESTSTAYMELTSLTSEDTAVYYCARTYYVYGHFFDYWGQGTTVTVSS
VL: DIQMTQSPSTLSASIGDRVTITCNVSSSVTSMYWFQQRPGQAPKVLIYLTSNLASGVPSRFSGSGSGTDFTFTISSLQPEDIATYYCQQWSTNPLTFGGGTKVDIK
notes: VH on human IgG1 constant region (pFUSEss-CHIg-hG1), VL on human kappa constant region (pFUSE2ss-CLIg-hk); also called AH6-AL7
B8: ヒト化抗体A AH3−AL4 (antibody, V domains shown)
VH: QVQLVQSGAEVKKPGASVKVSCKASGYTFTDYNMDWVRQAPGQGLEWIGDINSHSGGIIYNQKFKDKATMTVDTSTNTAYMELSSLRSEDTAVYYCARTYYVYGHFFDYWGQGTLVTVSS
VL: DIQMTQSPSSLSASVGDRVTITCNVSSSVTSMYWYQQKQGKSPQLLVYLTSNLASGVPSRFSGSGSGTDFTLTISSLQPEDFATYYCQQWSTNPLTFGQGTKVEIK
notes: VH on human IgG1 constant region (pFUSEss-CHIg-hG1), VL on human kappa constant region (pFUSE2ss-CLIg-hk); also called AH3-AL4
B9: ヒト化抗体A AH3−AL5 (antibody, V domains shown)
VH: QVQLVQSGAEVKKPGASVKVSCKASGYTFTDYNMDWVRQAPGQGLEWIGDINSHSGGIIYNQKFKDKATMTVDTSTNTAYMELSSLRSEDTAVYYCARTYYVYGHFFDYWGQGTLVTVSS
VL: DIQMTQSPASLSASVGETVTITCNVSSSVTSMYWYQQKPGKAPKLLIYLTSNLASGVPARFSGSGSGTEFTLTISSLQPDDFATYYCQQWSTNPLTFGAGTKLDLK
notes: VH on human IgG1 constant region (pFUSEss-CHIg-hG1), VL on human kappa constant region (pFUSE2ss-CLIg-hk); also called AH3-AL5
B10: ヒト化抗体A AH8−AL7 (antibody, V domains shown)
VH: EVQLVQSGAEVKKPGASVKVSCKASGYTFTDYNMDWVRQAPGKGLEWVGDINSHSGGIIYNQKFKDRVTITADRSTSTVYMELSGLRSEDTAVYYCARTYYVYGHFFDYWGKGTLVTVSS
VL: DIQMTQSPSTLSASIGDRVTITCNVSSSVTSMYWFQQRPGQAPKVLIYLTSNLASGVPSRFSGSGSGTDFTFTISSLQPEDIATYYCQQWSTNPLTFGGGTKVDIK
notes: VH on human IgG1 constant region (pFUSEss-CHIg-hG1), VL on human kappa constant region (pFUSE2ss-CLIg-hk); also called AH8-AL7
B11: ヒト化抗体A AH3−AL3 (antibody, V domains shown)
VH: QVQLVQSGAEVKKPGASVKVSCKASGYTFTDYNMDWVRQAPGQGLEWIGDINSHSGGIIYNQKFKDKATMTVDTSTNTAYMELSSLRSEDTAVYYCARTYYVYGHFFDYWGQGTLVTVSS
VL: DIQMTQSPSTLSASVGDRVTITCNVSSSVTSMYWYQQKPGKAPKLLIYLTSNLASGVPARFSGSGSGTEFTLTISSLQPDDFATYYCQQWSTNPLTFGQGTKVEVK
notes: VH on human IgG1 constant region (pFUSEss-CHIg-hG1), VL on human kappa constant region (pFUSE2ss-CLIg-hk); also called AH3-AL3
B12: ヒト化抗体A AH5−AL3 (antibody, V domains shown)
VH: EVQLVQSGPELKKPGASVKVSCKASGYTFTDYNMDWVKQRPGQGLEWIGDINSHSGGIIYNQKFKDRVTITADESTSTAYMELTSLTSEDTAVYYCARTYYVYGHFFDYWGQGTLVSVSS
VL: DIQMTQSPSTLSASVGDRVTITCNVSSSVTSMYWYQQKPGKAPKLLIYLTSNLASGVPARFSGSGSGTEFTLTISSLQPDDFATYYCQQWSTNPLTFGQGTKVEVK
notes: VH on human IgG1 constant region (pFUSEss-CHIg-hG1), VL on human kappa constant region (pFUSE2ss-CLIg-hk); also called AH5-AL3
B13: ヒト化抗体A AH3−AL7 (antibody, V domains shown)
VH: QVQLVQSGAEVKKPGASVKVSCKASGYTFTDYNMDWVRQAPGQGLEWIGDINSHSGGIIYNQKFKDKATMTVDTSTNTAYMELSSLRSEDTAVYYCARTYYVYGHFFDYWGQGTLVTVSS
VL: DIQMTQSPSTLSASIGDRVTITCNVSSSVTSMYWFQQRPGQAPKVLIYLTSNLASGVPSRFSGSGSGTDFTFTISSLQPEDIATYYCQQWSTNPLTFGGGTKVDIK
notes: VH on human IgG1 constant region (pFUSEss-CHIg-hG1), VL on human kappa constant region (pFUSE2ss-CLIg-hk); also called AH3-AL7
B14: ヒト化抗体A AH1−AL7 (antibody, V domains shown)
VH: EVQLVQSGAEVKKPGSSVKVSCKASGYTFTDYNMDWVRQAPGQGLEWIGDINSHSGGIIYNQKFKDKATITADESTNTAYMELSSLRSEDTAVYYCARTYYVYGHFFDYWGQGTTLTVSS
VL: DIQMTQSPSTLSASIGDRVTITCNVSSSVTSMYWFQQRPGQAPKVLIYLTSNLASGVPSRFSGSGSGTDFTFTISSLQPEDIATYYCQQWSTNPLTFGGGTKVDIK
notes: VH on human IgG1 constant region (pFUSEss-CHIg-hG1), VL on human kappa constant region (pFUSE2ss-CLIg-hk); also called AH1-AL7
B15: ヒト化抗体A AH8−AL1 (antibody, V domains shown)
VH: EVQLVQSGAEVKKPGASVKVSCKASGYTFTDYNMDWVRQAPGKGLEWVGDINSHSGGIIYNQKFKDRVTITADRSTSTVYMELSGLRSEDTAVYYCARTYYVYGHFFDYWGKGTLVTVSS
VL: DIQMTQSPSSLSASVGDRVTITCNVSSSVTSMYWYQQKPGKAPKLLIYLTSNLASGVPARFSGSGSGTEFTLTISSLQPDDFATYYCQQWSTNPLTFGAGTKLDLK
notes: VH on human IgG1 constant region (pFUSEss-CHIg-hG1), VL on human kappa constant region (pFUSE2ss-CLIg-hk); also called AH8-AL1
B16: ヒト化抗体A AH5−AL7 (antibody, V domains shown)
VH: EVQLVQSGPELKKPGASVKVSCKASGYTFTDYNMDWVKQRPGQGLEWIGDINSHSGGIIYNQKFKDRVTITADESTSTAYMELTSLTSEDTAVYYCARTYYVYGHFFDYWGQGTLVSVSS
VL: DIQMTQSPSTLSASIGDRVTITCNVSSSVTSMYWFQQRPGQAPKVLIYLTSNLASGVPSRFSGSGSGTDFTFTISSLQPEDIATYYCQQWSTNPLTFGGGTKVDIK
notes: VH on human IgG1 constant region (pFUSEss-CHIg-hG1), VL on human kappa constant region (pFUSE2ss-CLIg-hk); also called AH5-AL7
B17: ヒト化抗体A AH2−AL2 (antibody, V domains shown)
VH: QVQLQQPGAELVQPGTSVRLSCKASGYTFTDYNMDWVKQRPGQGLEWIGDINSHSGGIIYNQKFKDKATLTVDKSSSTAYMQLSSLTSEDSAVYYCTRTYYVYGHFFDYWGQGTLVTVSA
VL: DIQMTQSPSSLSASVGDRVTITCNVSSSVTSMYWYQQKQGKSPQLLVYLTSNLASGVPSRFSGSGSGTQFSLKINNLQPEDFGSYYCQQWSTNPLTFGAGTKLDLK
notes: VH on human IgG1 constant region (pFUSEss-CHIg-hG1), VL on human kappa constant region (pFUSE2ss-CLIg-hk); also called AH2-AL2
B18: ヒト化抗体A AH2−AL6 (antibody, V domains shown)
VH: QVQLQQPGAELVQPGTSVRLSCKASGYTFTDYNMDWVKQRPGQGLEWIGDINSHSGGIIYNQKFKDKATLTVDKSSSTAYMQLSSLTSEDSAVYYCTRTYYVYGHFFDYWGQGTLVTVSA
VL: EIVLTQSPATLSLSPGERATLSCNVSSSVTSMYWYQQKPGQAPRLLIYLTSNLASGIPDRFSGSGSGTDFTLTISRLEPEDFAVYYCQQWSTNPLTFGQGTKVEIK
notes: VH on human IgG1 constant region (pFUSEss-CHIg-hG1), VL on human kappa constant region (pFUSE2ss-CLIg-hk); also called AH2-AL6
B19: ヒト化抗体A AH2−AL8 (antibody, V domains shown)
VH: QVQLQQPGAELVQPGTSVRLSCKASGYTFTDYNMDWVKQRPGQGLEWIGDINSHSGGIIYNQKFKDKATLTVDKSSSTAYMQLSSLTSEDSAVYYCTRTYYVYGHFFDYWGQGTLVTVSA
VL: ELVLTQSPGTLSLSAGERATLSCNVSSSVTSMYWYQQKPGKAPKLLIYLTSNLASGAPSRFSGSGSGTDFTLTISSLQPDDFATYYCQQWSTNPLTFGGGTKLEIK
notes: VH on human IgG1 constant region (pFUSEss-CHIg-hG1), VL on human kappa constant region (pFUSE2ss-CLIg-hk); also called AH2-AL8

The binders below were run against T1, 可溶性ヒトgp130受容体 (soluble human gp130 receptor, extracellular region of SEQ ID NO 1 with six histidines) (human, UniProt P40189 23-619) (assay: ELISA, immobilised soluble human gp130, COS1 supernatant, anti-human antibody-HRP).
T1 construct: Secreted from CHO DG44 cells and purified on HisTrap; no cleavage site is stated; also called 可溶性ヒトgp130受容体タンパク質; ヒト可溶性gp130受容体
T1 sequence: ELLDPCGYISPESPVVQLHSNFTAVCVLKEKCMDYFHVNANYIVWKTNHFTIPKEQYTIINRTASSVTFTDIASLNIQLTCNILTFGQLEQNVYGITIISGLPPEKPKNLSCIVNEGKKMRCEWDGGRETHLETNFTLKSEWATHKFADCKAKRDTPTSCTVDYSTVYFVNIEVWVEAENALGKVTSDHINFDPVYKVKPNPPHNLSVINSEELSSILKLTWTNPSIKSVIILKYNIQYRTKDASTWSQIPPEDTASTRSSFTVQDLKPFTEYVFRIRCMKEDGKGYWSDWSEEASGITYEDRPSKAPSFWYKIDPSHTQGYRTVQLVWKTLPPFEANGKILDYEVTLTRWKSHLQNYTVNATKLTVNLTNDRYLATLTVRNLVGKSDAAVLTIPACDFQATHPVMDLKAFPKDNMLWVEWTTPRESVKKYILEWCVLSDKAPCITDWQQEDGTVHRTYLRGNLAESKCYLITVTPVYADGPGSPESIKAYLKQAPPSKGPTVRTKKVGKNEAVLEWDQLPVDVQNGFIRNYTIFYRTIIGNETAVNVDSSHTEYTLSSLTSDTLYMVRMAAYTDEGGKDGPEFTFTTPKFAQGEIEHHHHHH

Binding result, binds:
B1
B2
B3
B4
B5
B6
B7
B8
B9
B10
B11
B12
B13
B14
B15
B16
B17
B18
B19
